Data from paper PMC9700037 (2022).

Molecular target: T1, biotin-MBP-NLRP1 M1184V (Avi-MBP-tev-NLRP1 M1184V) (human, UniProt Q9C000 1-1473, M1184V, biotin (on the Avi tag, BirA co-expressed))
T1 sequence: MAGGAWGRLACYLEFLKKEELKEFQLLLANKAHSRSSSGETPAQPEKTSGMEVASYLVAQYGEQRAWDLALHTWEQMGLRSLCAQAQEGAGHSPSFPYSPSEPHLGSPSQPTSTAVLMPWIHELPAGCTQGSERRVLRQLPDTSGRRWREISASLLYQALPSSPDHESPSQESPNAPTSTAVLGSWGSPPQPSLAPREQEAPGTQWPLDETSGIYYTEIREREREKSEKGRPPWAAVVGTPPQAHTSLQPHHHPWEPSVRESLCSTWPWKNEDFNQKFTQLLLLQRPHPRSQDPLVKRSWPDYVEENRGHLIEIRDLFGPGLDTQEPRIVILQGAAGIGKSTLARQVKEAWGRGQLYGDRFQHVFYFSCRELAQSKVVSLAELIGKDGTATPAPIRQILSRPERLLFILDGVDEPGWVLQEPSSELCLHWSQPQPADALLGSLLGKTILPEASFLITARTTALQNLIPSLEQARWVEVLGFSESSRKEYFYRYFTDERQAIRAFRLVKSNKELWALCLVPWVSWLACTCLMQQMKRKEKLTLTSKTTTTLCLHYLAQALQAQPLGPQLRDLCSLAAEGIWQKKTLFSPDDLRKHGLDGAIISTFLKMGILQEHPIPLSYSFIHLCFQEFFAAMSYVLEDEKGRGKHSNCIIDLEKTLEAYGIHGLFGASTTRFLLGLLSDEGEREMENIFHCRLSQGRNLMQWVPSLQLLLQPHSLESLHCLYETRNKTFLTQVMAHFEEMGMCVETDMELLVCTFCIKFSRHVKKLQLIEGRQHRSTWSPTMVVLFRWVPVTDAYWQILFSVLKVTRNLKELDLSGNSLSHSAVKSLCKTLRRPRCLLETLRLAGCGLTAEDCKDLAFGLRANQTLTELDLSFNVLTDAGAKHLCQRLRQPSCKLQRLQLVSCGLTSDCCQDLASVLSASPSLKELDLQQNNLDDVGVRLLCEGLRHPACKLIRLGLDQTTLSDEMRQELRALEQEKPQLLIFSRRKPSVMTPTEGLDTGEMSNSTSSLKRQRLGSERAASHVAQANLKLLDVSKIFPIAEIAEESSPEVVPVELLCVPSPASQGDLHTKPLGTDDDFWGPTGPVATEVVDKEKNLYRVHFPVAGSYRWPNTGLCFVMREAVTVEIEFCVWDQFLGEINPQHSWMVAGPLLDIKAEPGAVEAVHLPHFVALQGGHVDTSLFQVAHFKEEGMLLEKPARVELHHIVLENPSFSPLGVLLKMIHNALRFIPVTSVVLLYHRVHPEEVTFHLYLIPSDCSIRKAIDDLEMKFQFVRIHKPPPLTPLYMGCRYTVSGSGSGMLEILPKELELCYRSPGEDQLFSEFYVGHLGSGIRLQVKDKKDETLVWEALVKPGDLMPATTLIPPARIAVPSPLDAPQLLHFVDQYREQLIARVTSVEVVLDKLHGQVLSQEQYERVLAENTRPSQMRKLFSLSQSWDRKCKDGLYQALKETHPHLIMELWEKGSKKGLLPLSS
Test: SPR; NLRP1 void (high MW) fraction

B1: His6-tev-DPP9 (enzyme)
chain: MATTGTPTADRGDAAATDDPAARFQVQKHSWDGLRSIIHGSRKYSGLIVNKAPHDFQFVQKTDESGPHSHRLYYLGMPYGSRENSLLYSEIPKKVRKEALLLLSWKQMLDHFQATPHHGVYSREEELLRERKRLGVFGITSYDFHSESGLFLFQASNSLFHCRDGGKNGFMVSPMKPLEIKTQCSGPRMDPKICPADPAFFSFINNSDLWVANIETGEERRLTFCHQGLSNVLDDPKSAGVATFVIQEEFDRFTGYWWCPTASWEGSEGLKTLRILYEEVDESEVEVIHVPSPALEERKTDSYRYPRTGSKNPKIALKLAEFQTDSQGKIVSTQEKELVQPFSSLFPKVEYIARAGWTRDGKYAWAMFLDRPQQWLQLVLLPPALFIPSTENEEQRLASARAVPRNVQPYVVYEEVTNVWINVHDIFYPFPQSEGEDELCFLRANECKTGFCHLYKVTAVLKSQGYDWSEPFSPGEDEFKCPIKEEIALTSGEWEVLARHGSKIWVNEETKLVYFQGTKDTPLEHHLYVVSYEAAGEIVRLTTPGFSHSCSMSQNFDMFVSHYSSVSTPPCVHVYKLSGPDDDPLHKQPRFWASMMEAASCPPDYVPPEIFHFHTRSDVRLYGMIYKPHALQPGKKHPTVLFVYGGPQVQLVNNSFKGIKYLRLNTLASLGYAVVVIDGRGSCQRGLRFEGALKNQMGQVEIEDQVEGLQFVAEKYGFIDLSRVAIHGWSYGGFLSLMGLIHKPQVFKVAIAGAPVTVWMAYDTGYTERYMDVPENNQHGYEAGSVALHVEKLPNEPNRLLILHGFLDENVHFFHTNFLVSQLIRAGKPYQLQIYPNERHSIRCPESGEHYEVTLLHFLQEYL
Q: Which Kd does the source give for B1 here?
A: Its Kd is 113 nM.
